Laboratory results as given in patent publication US20180086816A1.

Target: prolactin-receptor on NB2-11 cells (rat lymphoma cells) (rat (NB2-11 rat lymphoma cells)) (UniProt P05710)
Assay: cell-based or functional assay

Sequence of UniProt P05710 (P05710 20-610): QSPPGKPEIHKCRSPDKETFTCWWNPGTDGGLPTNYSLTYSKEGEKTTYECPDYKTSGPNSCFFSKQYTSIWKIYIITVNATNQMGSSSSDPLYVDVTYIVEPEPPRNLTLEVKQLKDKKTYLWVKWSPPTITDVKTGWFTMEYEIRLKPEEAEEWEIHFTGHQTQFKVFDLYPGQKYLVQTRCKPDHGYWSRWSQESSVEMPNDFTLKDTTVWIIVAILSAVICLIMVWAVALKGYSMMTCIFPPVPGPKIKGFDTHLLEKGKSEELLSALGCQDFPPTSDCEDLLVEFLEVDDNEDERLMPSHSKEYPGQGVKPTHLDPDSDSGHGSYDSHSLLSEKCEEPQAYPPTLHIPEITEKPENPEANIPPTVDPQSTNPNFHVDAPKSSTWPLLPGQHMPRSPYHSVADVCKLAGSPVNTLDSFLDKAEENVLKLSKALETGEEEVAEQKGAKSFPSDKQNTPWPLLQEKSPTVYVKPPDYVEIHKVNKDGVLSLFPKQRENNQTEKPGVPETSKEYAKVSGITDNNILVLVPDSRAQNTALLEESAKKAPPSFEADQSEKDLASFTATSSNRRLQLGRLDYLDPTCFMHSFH

NB2-11 cell proliferation, WST formazan absorbance (OD), dose response 0.039: 593
NB2-11 cell proliferation, WST formazan absorbance (OD), dose response 0.059: 684
NB2-11 cell proliferation, WST formazan absorbance (OD), dose response 0.088: 858
NB2-11 cell proliferation, WST formazan absorbance (OD), dose response 0.132: 1050
NB2-11 cell proliferation, WST formazan absorbance (OD), dose response 0.198: 1290
NB2-11 cell proliferation, WST formazan absorbance (OD), dose response 0.296: 1570
NB2-11 cell proliferation, WST formazan absorbance (OD), dose response 0.444: 1800
NB2-11 cell proliferation, WST formazan absorbance (OD), dose response 0.667: 1970
NB2-11 cell proliferation, WST formazan absorbance (OD), dose response 1: 2110
Substance: CTP modified hGH (hGH with one CTP at the N terminus and two CTP at the C terminus, expressed in HeLa cells) (from UniProt P0DN86 138-165; P01241 27-217; P0DN86 138-165; P0DN86 138-165)
